In this assay the target is CD81 on Huh7.5 cells (human) (UniProt P60033). The assay can be described thus: cell-based or functional assay.
Chain of UniProt P60033 (P60033 whole entry): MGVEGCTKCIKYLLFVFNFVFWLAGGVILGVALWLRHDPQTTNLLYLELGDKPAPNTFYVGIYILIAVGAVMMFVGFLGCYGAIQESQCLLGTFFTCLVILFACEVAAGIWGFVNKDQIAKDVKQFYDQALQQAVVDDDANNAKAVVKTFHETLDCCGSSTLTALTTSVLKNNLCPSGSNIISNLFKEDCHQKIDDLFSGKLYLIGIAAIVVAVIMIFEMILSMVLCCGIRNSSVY

With “anti-CD81 (JS-81, BD Biosciences, Pharmingen) (antibody)”, the inhibition of infection of Huh7.5 cells with SA13/JFH1C3405G-A3696G virus (FFU count) was found to be 90 % inhibition.

Source of the values: patent US20110021611A1.
